From publication doi:10.1101/2022.04.08.487687, “In Silico Improvement of Highly Protective Anti-Malarial Antibodies” (bioRxiv, 2022)
No end group written: not given here.

Biological target: T1, peptide 21 (PfCSP residues 101-115), biotinylated (Plasmodium falciparum 3D7, UniProt Q7K740, also: biotin, position not given here)
T1 construct: Biotinylated probe used in AlphaLISA and BLI; also called Pep21; P21
T1 chain: NPDPNANPNVDPNAN
Assay: BLI; Octet Red384; biotinylated Pep21 immobilised on streptavidin biosensors; Fab serially diluted from 1000 to 62.5 nM; 30°C; PBS + 1% BSA; global fit, 1:1 Langmuir model
Conditions: both partners purified

B1: P3-43 Fab (m43.151 variant P100KH) (Fab, V domains shown)
VH: QVHLVQSGAEVKKPGASVKVSCKASGYTFTSYAIHWVRQAPGQRLEWMGWIKGGNGNTRYSQKFQDRVTITRDTSASTAYMELSSLRSEDTAVYYCALLTVITKDDAFDIWGQGTMVTVSS
VL: not shown
notes: as the heavy chain of m5 (m43.151) with the stated change; as the light chain of m5 (m43.151), no change stated; Best m43.151-based variant; source: Fab produced from the antibody
  Kd: 8.9 ± 0.5 nM
